EC50 and Ka data for one substance are collected here from patent US20030228303A1.

The target of experiment [1] is non-denatured SHaPrP 27-30 (Syrian hamster) (UniProt P04273). Put plainly: ELISA on non-denatured PrP 27-30 (FIG. 9). In general terms: ELISA stands for enzyme-linked immunosorbent assay.
The target in experiment [2] is denatured SHaPrP 27-30 (Syrian hamster) (UniProt P04273). Put plainly: ELISA on denatured PrP 27-30 (FIG. 10).
Experiment [3] deals with non-denatured SHaPrP 27-30 (Syrian hamster) (UniProt P04273). The experiment can be described thus: estimated from immunoprecipitation (FIG. 12).

As a reminder, the EC50 is the concentration needed to bring the measured effect to its halfway point. Lower therefore signals an effect from little substance. Take 3F4 Fab: in experiment [1], the EC50 was determined as 2 µg/mL. Further, the results for the Ka in experiment [2] and in experiment [3] were 1e+08 M⁻¹ and below 1e+07 M⁻¹, respectively.
